Test [1] addresses T1, human CD39 (Accession No. NM_001776.6) expressed on cells (human, UniProt P49961 1-510).
T1 construct: whole, on cells; On Jurkat, 293T or SK-MEL28 cells; also called Jurkat/CD39; 293T/CD39
T1 sequence (looked up): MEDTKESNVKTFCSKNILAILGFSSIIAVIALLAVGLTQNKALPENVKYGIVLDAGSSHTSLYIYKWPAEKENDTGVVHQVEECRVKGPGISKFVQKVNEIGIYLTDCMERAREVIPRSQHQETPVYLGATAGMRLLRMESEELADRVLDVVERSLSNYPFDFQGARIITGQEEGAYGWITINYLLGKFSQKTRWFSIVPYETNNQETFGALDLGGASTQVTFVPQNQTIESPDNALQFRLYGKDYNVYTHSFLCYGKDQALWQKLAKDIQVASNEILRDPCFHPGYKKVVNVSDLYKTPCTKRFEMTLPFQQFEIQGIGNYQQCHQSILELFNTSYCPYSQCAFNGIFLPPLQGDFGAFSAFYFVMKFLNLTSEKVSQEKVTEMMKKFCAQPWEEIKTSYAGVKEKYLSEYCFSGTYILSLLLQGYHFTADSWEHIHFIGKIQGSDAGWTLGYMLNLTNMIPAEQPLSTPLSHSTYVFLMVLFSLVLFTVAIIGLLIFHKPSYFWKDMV
In words: flow cytometry, 293T/CD39 cells, KD from MFI. A general note: In flow cytometry, cells or beads pass a laser one at a time.

In test [2] the target is T1, human CD39 (Accession No. NM_001776.6) …. In words: flow cytometry, 293T/TIM-3 + CD39 cells, KD from MFI.
In test [3] the target is T2, human TIM-3 (Accession No. JX049979.1) stably expressed on cells (human, UniProt Q8TDQ0 22-301).
T2 construct: whole, on cells; On Jurkat or 293T cells; also called Jurkat/TIM-3; 293T/TIM-3
Nature of the test: flow cytometry, Jurkat/TIM-3 cells, KD from MFI.

In test [4] the target is T3, biotinylated human TIM-3-Fc antigen (in-house product, SEQ ID No: 118) (human, biotinylated). Nature of the test: competition ELISA: human Galectin-9 coated, biotinylated human TIM-3-Fc pre-mixed with the antibody dilution series, Streptavidin-HRP, A450; blocked ligand: human Galectin-9.
For test [5], the target named is T4, recombinant human CD39 (in-house product, 38 to 478 aa of Accession No. NM_001776.6) (human, UniProt P49961 38-478).
T4 construct: also called rhCD39; human CD39-ECD; not shown: Myc and His tags at the C-terminus are named only for the PE-lab
T4 sequence (looked up): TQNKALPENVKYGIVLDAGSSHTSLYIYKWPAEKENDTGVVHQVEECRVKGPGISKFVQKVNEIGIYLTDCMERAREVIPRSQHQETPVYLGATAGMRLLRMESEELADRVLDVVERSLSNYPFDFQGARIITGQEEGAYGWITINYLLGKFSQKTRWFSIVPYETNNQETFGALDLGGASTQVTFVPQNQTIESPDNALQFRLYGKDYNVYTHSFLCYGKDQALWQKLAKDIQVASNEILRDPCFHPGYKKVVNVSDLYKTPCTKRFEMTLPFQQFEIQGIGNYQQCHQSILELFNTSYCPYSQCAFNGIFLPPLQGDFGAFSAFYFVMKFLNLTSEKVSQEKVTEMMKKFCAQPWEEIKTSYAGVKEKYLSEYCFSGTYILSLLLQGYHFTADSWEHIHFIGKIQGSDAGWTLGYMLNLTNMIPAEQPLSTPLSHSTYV
Nature of the test: SPR Biacore8K, antibody captured on anti-human IgG, antigen as analyte. (In SPR one partner is held on a chip, and binding of the other changes the refractive index at the surface.)

Test [6] addresses T3, biotinylated human TIM-3-Fc antigen …. In words: flow cytometry, inhibition of biotinylated TIM-3-Fc binding to phosphatidylserine on apoptotic Jurkat cells.
For test [7], the target named is T1, human CD39 (Accession No. NM_001776.6) …. Nature of the test: flow cytometry, Jurkat/CD39 cells, KD from MFI.

As a reminder, the Kd is the equilibrium constant for the complex coming apart. One may read the IC50 as the midpoint of a concentration-inhibition curve.

B1: mAnE67_LA (antibody, V domains shown)
VH: EVQLVESGGGLVKPGGSRKLSCAASGFTFSDYGMHWVRQAPEKGLEWVAYISSGSSIIYYADTVKGRFTISRDNAKNTLFLQMTGLRSEDTAMYYCARKDYPYAMDYWGQGTSLAVSS
VL: SIVMTQTPKFMSTSVGDRVSVTCKASQNVGTNVAWYQQKPGQSPKALIYWASNRFTGVPDRFTGSGSGTDFTLTISNVQSEDLADYFCQQYSSSPYTFGSGTKLEIK
notes: also called IgG1-LALA antibody of anti-CD39 antibody mAnE67
For B1, the results for the Kd in test [1] and in test [2] were 1.8 nM and 3.66 nM, respectively.

B2: T86_Hu003_Ct (bispecific antibody)
chain 1: QIQLVQSGPELKKPGETVKISCEASGYTFINYGMNWVKQAPGKGLKWMGWINTYTGEPTYADDFKGRFAFSLETSANTAYLQINNLKNEDTATYFCARKGYYGYPNYYAMDYWGQGTSVTVSSGGGGSGGGGSGGGGSGGGGSDIVMTQSQKFMSTSVGDRVSITCKASQNVGTAVAWYQQKPGQSPKLLIYSASNRYTGVPDRFTGSGSGTDFTLTISNMQSEDLADYFCQQYSSYPITFGTGTKLEIK
chain 2: QVQLQESGGGLVKPGGSLKLSCAASGFTFSSYYMSWVRQTPDKRLEWVATISNSGGSTYYPDSVKDRFTISRDNAKNTLYLQMSSLKSEDTAMYYCARDPYYTNYVPMDYWGQGTMVTVSSGGGGSGGGGSGGGGSGGGGSDIVMTQSPSFLSASVGDRVTITCKASQYVDTYVAWYQQRPGKAPKPLIYSASTRHTGVPSRFSGSGSGTEFTLTISSLQPEDFATYFCAQYSSSPLTFGGGTKLELK
For the molecule B2, the Kd in test [3] is 2.77 nM; in test [5] it was 1.74 nM; in test [7] it was 18.8 nM. Besides, the “IC50 (read off the curve)” value in test [4] is approximately 2 nM. Moreover, in test [6], the IC50 stood at 30.8 nM.

B3: 6-3hIG_Hu003_Ct (bispecific antibody)
chain 1: QVQLVQSGAELVKPGASVKLSCKASGFSIKDTYVHWVKQAPGKGLEWIGKIDPANVNTKFDPKFQGRVTITADTSTNTAYLQLSSLRSEDTAVYYCALYGYDDDAYYFDYWGQGTLVTVSSGGGGSGGGGSGGGGSGGGGSEIVLTQSPASLSVSPGERATISCRASESVDNYGISFMNWFQQKPGQAPKLLIYAASNQGSGVPARFSGSGSGTDFTLTISSLEPEDFAVYYCQQSKEVPYTFGQGTKLEIK
chain 2: QVQLQESGGGLVKPGGSLKLSCAASGFTFSSYYMSWVRQTPDKRLEWVATISNSGGSTYYPDSVKDRFTISRDNAKNTLYLQMSSLKSEDTAMYYCARDPYYTNYVPMDYWGQGTMVTVSSGGGGSGGGGSGGGGSGGGGSDIVMTQSPSFLSASVGDRVTITCKASQYVDTYVAWYQQRPGKAPKPLIYSASTRHTGVPSRFSGSGSGTEFTLTISSLQPEDFATYFCAQYSSSPLTFGGGTKLELK
Regarding B3, the values for the Kd in test [3], in test [5] and in test [7] were 1.92 nM, 0.355 nM and 237 nM, respectively. Besides, the “IC50 (read off the curve)” value in test [4] was approximately 2 nM. Besides, the IC50 in test [6] was 16.1 nM.

B4: Tre291_Hu003_Ct (bispecific antibody)
chain 1: QVQLKQSGPGLVQPSQSLSITCTVSGFSLTSYGVHWVRQSPGKGLEWLGVIWRRGSTDYNAAFMSRLSITKDTSKSQVFFKMNSLQTDDTAIYYCAGVRGDAMDYWGQGTSVTVSSGGGGSGGGGSGGGGSGGGGSDIVMTQSHKSMSTSVGDRVSVTCKASQNVGTNVAWYQQKPGQSPKALIYSASYRYSGVPDRFTGSGSGTDFTLTISNVQSEDLAEYFCQQYNSYPLTFGGGTKLEIK
chain 2: QVQLQESGGGLVKPGGSLKLSCAASGFTFSSYYMSWVRQTPDKRLEWVATISNSGGSTYYPDSVKDRFTISRDNAKNTLYLQMSSLKSEDTAMYYCARDPYYTNYVPMDYWGQGTMVTVSSGGGGSGGGGSGGGGSGGGGSDIVMTQSPSFLSASVGDRVTITCKASQYVDTYVAWYQQRPGKAPKPLIYSASTRHTGVPSRFSGSGSGTEFTLTISSLQPEDFATYFCAQYSSSPLTFGGGTKLELK
Regarding B4, the Kd in test [3] was determined as 2.13 nM; in test [5], 2.79 nM; in test [7], 22.6 nM. Moreover, in test [4], the “IC50 (read off the curve)” value was approximately 1 nM. The molecule also had an IC50 in test [6] of 28.3 nM.

B5: mAnE67_Hu003_Ct (bispecific antibody)
chain 1: EVQLVESGGGLVKPGGSRKLSCAASGFTFSDYGMHWVRQAPEKGLEWVAYISSGSSIIYYADTVKGRFTISRDNAKNTLFLQMTGLRSEDTAMYYCARKDYPYAMDYWGQGTSLAVSSGGGGSGGGGSGGGGSGGGGSSIVMTQTPKFMSTSVGDRVSVTCKASQNVGTNVAWYQQKPGQSPKALIYWASNRFTGVPDRFTGSGSGTDFTLTISNVQSEDLADYFCQQYSSSPYTFGSGTKLEIK
chain 2: QVQLQESGGGLVKPGGSLKLSCAASGFTFSSYYMSWVRQTPDKRLEWVATISNSGGSTYYPDSVKDRFTISRDNAKNTLYLQMSSLKSEDTAMYYCARDPYYTNYVPMDYWGQGTMVTVSSGGGGSGGGGSGGGGSGGGGSDIVMTQSPSFLSASVGDRVTITCKASQYVDTYVAWYQQRPGKAPKPLIYSASTRHTGVPSRFSGSGSGTEFTLTISSLQPEDFATYFCAQYSSSPLTFGGGTKLELK
As to B5, the Kd turned out to be 1.49 nM in test [3], 2.26 nM in test [5] and 2.69 nM in test [7]. For the same molecule, in test [6], the IC50 was 24.7 nM.

B6: I67_Hu003_Ct (bispecific antibody)
chain 1: DVQLQESGPSLVQPSQSLSINCTVSGFSLSSYGVHWVRQSPGKGLEWLGVIWRRGSTDYNAAFMSRLSITKDNSKSQVFFKMNRLQADDTATYYCAKGISTATSWFAYWGQGTLVTVSAGGGGSGGGGSGGGGSGGGGSDIVMTQSHKFMSTSVGDRVSVTCKASQNVGTNVAWYQQKPGQSPKALIYSASYRYSGVPDRFTGSGSGTDFTLTISNVQSEDLAEYFCQQYNSYPLTFGAGTKLELK
chain 2: QVQLQESGGGLVKPGGSLKLSCAASGFTFSSYYMSWVRQTPDKRLEWVATISNSGGSTYYPDSVKDRFTISRDNAKNTLYLQMSSLKSEDTAMYYCARDPYYTNYVPMDYWGQGTMVTVSSGGGGSGGGGSGGGGSGGGGSDIVMTQSPSFLSASVGDRVTITCKASQYVDTYVAWYQQRPGKAPKPLIYSASTRHTGVPSRFSGSGSGTEFTLTISSLQPEDFATYFCAQYSSSPLTFGGGTKLELK
Consider B6, for which the Kd in test [3] came to 1.86 nM; in test [5] it was 1.63 nM; in test [7], 14.1 nM. Further, the “IC50 (read off the curve)” value in test [4] was approximately 2 nM. Moreover, the half-inhibitory concentration (IC50) in test [6] was determined as 27.2 nM.

B7: T86_LA (antibody, V domains shown)
VH: QIQLVQSGPELKKPGETVKISCEASGYTFINYGMNWVKQAPGKGLKWMGWINTYTGEPTYADDFKGRFAFSLETSANTAYLQINNLKNEDTATYFCARKGYYGYPNYYAMDYWGQGTSVTVSS
VL: DIVMTQSQKFMSTSVGDRVSITCKASQNVGTAVAWYQQKPGQSPKLLIYSASNRYTGVPDRFTGSGSGTDFTLTISNMQSEDLADYFCQQYSSYPITFGTGTKLEIK
notes: also called IgG1-LALA antibody of anti-CD39 antibody T86
As for B7, the Kd in test [1] is 2.67 nM; in test [2], 5.09 nM.

B8: I67_LA (antibody, V domains shown)
VH: DVQLQESGPSLVQPSQSLSINCTVSGFSLSSYGVHWVRQSPGKGLEWLGVIWRRGSTDYNAAFMSRLSITKDNSKSQVFFKMNRLQADDTATYYCAKGISTATSWFAYWGQGTLVTVSA
VL: DIVMTQSHKFMSTSVGDRVSVTCKASQNVGTNVAWYQQKPGQSPKALIYSASYRYSGVPDRFTGSGSGTDFTLTISNVQSEDLAEYFCQQYNSYPLTFGAGTKLELK
notes: also called IgG1-LALA antibody of anti-CD39 antibody I67
For B8, the Kd in test [1] stood at 1.73 nM; in test [2], 4.19 nM.

B9: Tre291_LA (antibody, V domains shown)
VH: QVQLKQSGPGLVQPSQSLSITCTVSGFSLTSYGVHWVRQSPGKGLEWLGVIWRRGSTDYNAAFMSRLSITKDTSKSQVFFKMNSLQTDDTAIYYCAGVRGDAMDYWGQGTSVTVSS
VL: DIVMTQSHKSMSTSVGDRVSVTCKASQNVGTNVAWYQQKPGQSPKALIYSASYRYSGVPDRFTGSGSGTDFTLTISNVQSEDLAEYFCQQYNSYPLTFGGGTKLEIK
B9: the Kd in test [1] turned out to be 2.44 nM; in test [2], 4.79 nM.

Source of the values: patent US20260085127A1 (BRIGHTPATH BIOTHERAPEUTICS, published 2026).
